Test results as given in patent publication US20160123962A1 (ALBERT EINSTEIN COLLEGE OF MEDICINE, published 2016).
Values belong to the molecule of their own block, whether it stands above or below them.

T1: human brevican (human, UniProt Q96GW7 23-911, limits assumed)
T1 construct: Proteoglycan immobilized on the SPR chip
T1 sequence (looked up): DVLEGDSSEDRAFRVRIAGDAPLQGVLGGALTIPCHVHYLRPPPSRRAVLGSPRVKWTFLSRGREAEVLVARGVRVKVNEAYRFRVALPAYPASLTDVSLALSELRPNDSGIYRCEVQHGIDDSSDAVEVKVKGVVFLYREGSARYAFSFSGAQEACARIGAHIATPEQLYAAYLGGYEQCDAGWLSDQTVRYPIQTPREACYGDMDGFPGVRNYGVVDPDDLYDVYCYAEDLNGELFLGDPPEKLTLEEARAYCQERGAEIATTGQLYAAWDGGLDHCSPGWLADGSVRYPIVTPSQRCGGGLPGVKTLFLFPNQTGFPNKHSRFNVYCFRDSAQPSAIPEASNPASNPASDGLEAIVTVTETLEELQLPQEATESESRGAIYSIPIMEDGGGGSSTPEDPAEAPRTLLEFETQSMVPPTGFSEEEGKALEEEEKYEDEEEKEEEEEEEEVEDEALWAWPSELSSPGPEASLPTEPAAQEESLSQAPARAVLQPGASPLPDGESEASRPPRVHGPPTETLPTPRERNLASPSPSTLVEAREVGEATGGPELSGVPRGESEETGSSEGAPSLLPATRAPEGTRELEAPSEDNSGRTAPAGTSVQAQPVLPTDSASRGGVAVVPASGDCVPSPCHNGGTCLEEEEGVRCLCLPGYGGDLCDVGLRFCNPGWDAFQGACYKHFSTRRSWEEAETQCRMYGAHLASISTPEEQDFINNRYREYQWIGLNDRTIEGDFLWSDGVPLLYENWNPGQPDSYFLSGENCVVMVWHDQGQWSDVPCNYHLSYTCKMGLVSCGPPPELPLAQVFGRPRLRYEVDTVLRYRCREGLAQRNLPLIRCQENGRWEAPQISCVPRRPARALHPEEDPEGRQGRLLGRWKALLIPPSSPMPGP

B1: human IL-34 (interleukin-34) (ligand, UniProt Q6ZMJ4 21-242, looked up)
chain: NEPLEMWPLTQNEECTVTGFLRDKLQYRSRLQYMKHYFPINYKISVPYEGVFRIANVTRLQRAQVSERELRYLWVLVSLSATESVQDVLLEGHPSWKYLQEVETLLLNVQQGLTDVEVSPKVESVLSLLNAPGPNLKLVRPKALLDNCFRVMELLYCSCCKQSSVLNWQDCEVPSPQSCSPEPSLQYAATQLYPPPPWSPSSPPHSTGSVRPVRAQGEGLLP
modifications: biotinylated with EZ-Link Sulfo-NHS-LC-LC-Biotin in the pull-down and flow cytometry assays; unlabelled in SPR
notes: Purified protein; also called hIL-34; biotinylated hIL-34
B2: FLAG-tagged human IL-34 (ligand, UniProt Q6ZMJ4 21-242, looked up)
chain: B1 chain
notes: also called IL-34-FLAG; not shown: FLAG tag
B3: human tenascin-R (hTN-R) (other, UniProt Q92752 32-1358, looked up)
chain: QLEVTTERVQRQSVEEEGGIANYNTSSKEQPVVFNHVYNINVPLDNLCSSGLEASAEQEVSAEDETLAEYMGQTSDHESQVTFTHRINFPKKACPCASSAQVLQELLSRIEMLEREVSVLRDQCNANCCQESAATGQLDYIPHCSGHGNFSFESCGCICNEGWFGKNCSEPYCPLGCSSRGVCVDGQCICDSEYSGDDCSELRCPTDCSSRGLCVDGECVCEEPYTGEDCRELRCPGDCSGKGRCANGTCLCEEGYVGEDCGQRQCLNACSGRGQCEEGLCVCEEGYQGPDCSAVAPPEDLRVAGISDRSIELEWDGPMAVTEYVISYQPTALGGLQLQQRVPGDWSGVTITELEPGLTYNISVYAVISNILSLPITAKVATHLSTPQGLQFKTITETTVEVQWEPFSFSFDGWEISFIPKNNEGGVIAQVPSDVTSFNQTGLKPGEEYIVNVVALKEQARSPPTSASVSTVIDGPTQILVRDVSDTVAFVEWIPPRAKVDFILLKYGLVGGEGGRTTFRLQPPLSQYSVQALRPGSRYEVSVSAVRGTNESDSATTQFTTEIDAPKNLRVGSRTATSLDLEWDNSEAEVQEYKVVYSTLAGEQYHEVLVPRGIGPTTRATLTDLVPGTEYGVGISAVMNSQQSVPATMNARTELDSPRDLMVTASSETSISLIWTKASGPIDHYRITFTPSSGIASEVTVPKDRTSYTLTDLEPGAEYIISVTAERGRQQSLESTVDAFTGFRPISHLHFSHVTSSSVNITWSDPSPPADRLILNYSPRDEEEEMMEVSLDATKRHAVLMGLQPATEYIVNLVAVHGTVTSEPIVGSITTGIDPPKDITISNVTKDSVMVSWSPPVASFDYYRVSYRPTQVGRLDSSVVPNTVTEFTITRLNPATEYEISLNSVRGREESERICTLVHTAMDNPVDLIATNITPTEALLQWKAPVGEVENYVIVLTHFAVAGETILVDGVSEEFRLVDLLPSTHYTATMYATNGPLTSGTISTNFSTLLDPPANLTASEVTRQSALISWQPPRAEIENYVLTYKSTDGSRKELIVDAEDTWIRLEGLLENTDYTVLLQAAQDTTWSSITSTAFTTGGRVFPHPQDCAQHLMNGDTLSGVYPIFLNGELSQKLQVYCDMTTDGGGWIVFQRRQNGQTDFFRKWADYRVGFGNVEDEFWLGLDNIHRITSQGRYELRVDMRDGQEAAFASYDRFSVEDSRNLYKLRIGSYNGTAGDSLSYHQGRPFSTEDRDNDVAVTNCAMSYKGAWWYKNCHRTNLNGKYGESRHSQGINWYHWKGHEFSIPFVEMKMRPYNHRLMAGRKRQSLQF
notes: Extracellular matrix protein used as analyte in SPR
B4: FLAG-tagged human CSF-1 (ligand, UniProt P09603 33-255, looked up)
chain: EEVSEYCSHMIGSGHLQSLQRLIDSQMETSCQITFEFVDQEQLKDPVCYLKKAFLLVQDIMEDTMRFRDNTPNAIAIVQLQELSLRLKSCFTKDYEEHDKACVRTFYETPLQLLEKVKNVFNETKNLLDKDWNIFSKNCNNSFAECSSQDVVTKPDCNCLYPKAIPSSDPASVSPHQPLAPSMAPVAGLTWEDSEGTEGSSLLPGEQPLHTVDPGSAKQRPPR
notes: also called CSF-1-FLAG; not shown: FLAG tag
B5: human recombinant CSF-1 (colony stimulating factor-1) (ligand, UniProt P09603 36-253, looked up)
chain: SEYCSHMIGSGHLQSLQRLIDSQMETSCQITFEFVDQEQLKDPVCYLKKAFLLVQDIMEDTMRFRDNTPNAIAIVQLQELSLRLKSCFTKDYEEHDKACVRTFYETPLQLLEKVKNVFNETKNLLDKDWNIFSKNCNNSFAECSSQDVVTKPDCNCLYPKAIPSSDPASVSPHQPLAPSMAPVAGLTWEDSEGTEGSSLLPGEQPLHTVDPGSAKQRP
notes: also called hCSF-1

How the values were obtained:
[1] = target: human PTP-ζ (protein tyrosine phosphatase receptor type zeta) of U251 human glioblastoma cells (human) (UniProt P23471); test: cell-based or functional assay
[2] = target: T2, human PTP-ζ extracellular domain fused to immunoglobulin Fc domain (hPTP-ζ-ECD-Fc) (human, UniProt P23471 25-1636); test: SPR (Biacore T100), hPTP-ζ-ECD-Fc captured on Protein A, hIL-34 as analyte, steady state model; hIL-34 on full-length hPTP-ζ ECD-Fc
T2 construct: also called full-length hPTP-ζ ECD-Fc; not shown: immunoglobulin Fc domain
Protocol: (§1) SPR binding analyses were performed at 25° C. on Biacore instruments. […] The protein A surface was regenerated with 10 mM Glycine-HCl, pH 1.5. […] All sensorgrams were double-referenced.

human tenascin-R (hTN-R) = target: B3; test: SPR (Biacore 3000), IL-34 immobilized on CM5 chip, hTN-R as analyte, steady state model; IL-34 with hTN-R
Protocol: as §1

human brevican = target: T1, human brevican; test: SPR, brevican immobilized on the chip, hIL-34 as analyte; IL-34 with human brevican
Protocol: as §1

[3] = target: T3, human CSF-1R extracellular domain fused to immunoglobulin Fc domain (hCSF-1R-ECD-Fc) (human, UniProt P07333 20-517); test: SPR (Biacore T100), hCSF-1R-ECD-Fc captured on Protein A, hIL-34 as analyte; hIL-34 on hCSF-1R-ECD-Fc
T3 construct: extracellular domain; not shown: immunoglobulin Fc domain
Protocol: as §1

[4] = target: T4, human PTP-ζ (protein tyrosine phosphatase receptor type zeta) of U251 human glioblastoma cells (human, UniProt P23471 25-2315, chondroitin sulfate glycosaminoglycan chains (proteoglycan)); test: flow cytometry on U251 cells, detection with biotin-labeled anti-FLAG M2 antibody
T4 construct: Endogenous protein on intact U251 cells (flow cytometry) or in OG-solubilized U251 membrane lysates (pull-down); long (~400 kDa), non-glycosaminoglycanylated (300 kDa) and short (220 kDa) isoforms are present; U251 cells lack CSF-1R; also called PTP-β/ζ; cell-surface PTP-ζ

[5] = target: T2, human PTP-ζ extracellular domain fused …; test: SPR (Biacore 3000), hPTP-ζ ECD-Fc immobilized on CM5 chip, hTN-R as analyte, steady state model; TN-R with hPTP-ζ ECD-Fc
Protocol: as §1

[6] = target: T4, human PTP-ζ (protein tyrosine …); test: flow cytometry on U251 cells, detection with biotin-labeled anti-FLAG M2 antibody, at concentrations equivalent to IL-34-FLAG
[7] = target: T3, human CSF-1R extracellular domain fused …; test: SPR (Biacore T100), hCSF-1R-ECD-Fc captured on Protein A, hCSF-1 as analyte; hCSF-1 on hCSF-1R-ECD-Fc
Protocol: as §1

T4 sequence (P23471 25-2315 limits assumed): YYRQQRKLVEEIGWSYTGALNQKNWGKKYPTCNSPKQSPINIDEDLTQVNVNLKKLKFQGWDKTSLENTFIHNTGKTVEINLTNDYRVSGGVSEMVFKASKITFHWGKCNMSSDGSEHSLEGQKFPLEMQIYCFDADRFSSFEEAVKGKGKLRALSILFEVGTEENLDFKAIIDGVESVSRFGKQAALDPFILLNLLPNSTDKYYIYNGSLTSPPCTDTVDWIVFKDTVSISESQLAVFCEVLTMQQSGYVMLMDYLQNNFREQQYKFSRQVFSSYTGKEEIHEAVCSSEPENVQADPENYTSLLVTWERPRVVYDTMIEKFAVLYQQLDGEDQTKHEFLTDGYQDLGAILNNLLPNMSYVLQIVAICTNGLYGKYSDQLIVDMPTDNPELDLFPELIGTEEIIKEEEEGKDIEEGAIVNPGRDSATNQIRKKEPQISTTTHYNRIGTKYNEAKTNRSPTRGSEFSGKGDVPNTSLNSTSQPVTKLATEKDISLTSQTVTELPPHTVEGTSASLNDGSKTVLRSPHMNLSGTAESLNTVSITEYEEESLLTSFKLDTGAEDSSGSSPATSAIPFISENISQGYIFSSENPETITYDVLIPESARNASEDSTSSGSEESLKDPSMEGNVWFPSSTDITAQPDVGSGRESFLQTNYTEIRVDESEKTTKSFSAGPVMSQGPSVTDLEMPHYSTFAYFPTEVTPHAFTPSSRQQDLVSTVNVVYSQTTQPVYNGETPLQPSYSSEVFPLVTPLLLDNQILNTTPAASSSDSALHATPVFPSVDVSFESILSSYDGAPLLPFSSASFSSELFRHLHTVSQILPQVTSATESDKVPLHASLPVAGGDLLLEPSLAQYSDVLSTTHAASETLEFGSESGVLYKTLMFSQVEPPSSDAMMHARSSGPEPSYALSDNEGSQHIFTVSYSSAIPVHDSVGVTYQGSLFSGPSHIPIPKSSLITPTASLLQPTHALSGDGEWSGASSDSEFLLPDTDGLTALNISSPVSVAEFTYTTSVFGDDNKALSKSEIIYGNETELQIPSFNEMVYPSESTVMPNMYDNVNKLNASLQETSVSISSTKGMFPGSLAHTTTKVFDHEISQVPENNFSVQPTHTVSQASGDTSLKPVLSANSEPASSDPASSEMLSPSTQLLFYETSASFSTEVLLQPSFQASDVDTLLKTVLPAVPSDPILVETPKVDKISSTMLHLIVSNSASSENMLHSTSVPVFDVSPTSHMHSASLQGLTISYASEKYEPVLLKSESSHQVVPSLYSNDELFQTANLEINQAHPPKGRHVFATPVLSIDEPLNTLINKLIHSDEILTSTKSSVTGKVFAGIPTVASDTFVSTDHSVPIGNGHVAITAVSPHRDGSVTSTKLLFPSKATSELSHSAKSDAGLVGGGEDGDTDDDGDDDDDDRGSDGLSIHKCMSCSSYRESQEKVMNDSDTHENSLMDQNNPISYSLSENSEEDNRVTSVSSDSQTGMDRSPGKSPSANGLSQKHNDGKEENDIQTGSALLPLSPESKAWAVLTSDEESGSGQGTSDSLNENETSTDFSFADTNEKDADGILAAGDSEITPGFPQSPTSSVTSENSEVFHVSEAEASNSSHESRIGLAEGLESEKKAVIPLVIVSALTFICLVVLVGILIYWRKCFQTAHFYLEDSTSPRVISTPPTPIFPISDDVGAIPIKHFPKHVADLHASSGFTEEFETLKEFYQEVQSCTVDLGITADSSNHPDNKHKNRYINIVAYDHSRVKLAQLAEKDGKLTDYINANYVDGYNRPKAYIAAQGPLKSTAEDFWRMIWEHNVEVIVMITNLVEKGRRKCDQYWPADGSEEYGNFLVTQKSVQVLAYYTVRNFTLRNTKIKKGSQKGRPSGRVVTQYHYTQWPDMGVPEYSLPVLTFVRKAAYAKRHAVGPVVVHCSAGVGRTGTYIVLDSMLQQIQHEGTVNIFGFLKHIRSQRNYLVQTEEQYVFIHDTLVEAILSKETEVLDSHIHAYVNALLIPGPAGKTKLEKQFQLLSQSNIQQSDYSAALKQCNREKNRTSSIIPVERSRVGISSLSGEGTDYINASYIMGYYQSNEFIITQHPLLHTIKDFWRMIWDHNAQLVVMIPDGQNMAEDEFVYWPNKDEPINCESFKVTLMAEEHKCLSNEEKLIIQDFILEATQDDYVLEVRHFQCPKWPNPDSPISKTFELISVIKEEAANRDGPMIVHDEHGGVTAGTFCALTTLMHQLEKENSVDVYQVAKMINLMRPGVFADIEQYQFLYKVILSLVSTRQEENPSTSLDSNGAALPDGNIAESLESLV
Sequence of human PTP-ζ (protein tyrosine phosphatase receptor type zeta) of U251 human glioblastoma cells (human) (P23471 25-2315 limits assumed): as above
T2 sequence (P23471 25-1636): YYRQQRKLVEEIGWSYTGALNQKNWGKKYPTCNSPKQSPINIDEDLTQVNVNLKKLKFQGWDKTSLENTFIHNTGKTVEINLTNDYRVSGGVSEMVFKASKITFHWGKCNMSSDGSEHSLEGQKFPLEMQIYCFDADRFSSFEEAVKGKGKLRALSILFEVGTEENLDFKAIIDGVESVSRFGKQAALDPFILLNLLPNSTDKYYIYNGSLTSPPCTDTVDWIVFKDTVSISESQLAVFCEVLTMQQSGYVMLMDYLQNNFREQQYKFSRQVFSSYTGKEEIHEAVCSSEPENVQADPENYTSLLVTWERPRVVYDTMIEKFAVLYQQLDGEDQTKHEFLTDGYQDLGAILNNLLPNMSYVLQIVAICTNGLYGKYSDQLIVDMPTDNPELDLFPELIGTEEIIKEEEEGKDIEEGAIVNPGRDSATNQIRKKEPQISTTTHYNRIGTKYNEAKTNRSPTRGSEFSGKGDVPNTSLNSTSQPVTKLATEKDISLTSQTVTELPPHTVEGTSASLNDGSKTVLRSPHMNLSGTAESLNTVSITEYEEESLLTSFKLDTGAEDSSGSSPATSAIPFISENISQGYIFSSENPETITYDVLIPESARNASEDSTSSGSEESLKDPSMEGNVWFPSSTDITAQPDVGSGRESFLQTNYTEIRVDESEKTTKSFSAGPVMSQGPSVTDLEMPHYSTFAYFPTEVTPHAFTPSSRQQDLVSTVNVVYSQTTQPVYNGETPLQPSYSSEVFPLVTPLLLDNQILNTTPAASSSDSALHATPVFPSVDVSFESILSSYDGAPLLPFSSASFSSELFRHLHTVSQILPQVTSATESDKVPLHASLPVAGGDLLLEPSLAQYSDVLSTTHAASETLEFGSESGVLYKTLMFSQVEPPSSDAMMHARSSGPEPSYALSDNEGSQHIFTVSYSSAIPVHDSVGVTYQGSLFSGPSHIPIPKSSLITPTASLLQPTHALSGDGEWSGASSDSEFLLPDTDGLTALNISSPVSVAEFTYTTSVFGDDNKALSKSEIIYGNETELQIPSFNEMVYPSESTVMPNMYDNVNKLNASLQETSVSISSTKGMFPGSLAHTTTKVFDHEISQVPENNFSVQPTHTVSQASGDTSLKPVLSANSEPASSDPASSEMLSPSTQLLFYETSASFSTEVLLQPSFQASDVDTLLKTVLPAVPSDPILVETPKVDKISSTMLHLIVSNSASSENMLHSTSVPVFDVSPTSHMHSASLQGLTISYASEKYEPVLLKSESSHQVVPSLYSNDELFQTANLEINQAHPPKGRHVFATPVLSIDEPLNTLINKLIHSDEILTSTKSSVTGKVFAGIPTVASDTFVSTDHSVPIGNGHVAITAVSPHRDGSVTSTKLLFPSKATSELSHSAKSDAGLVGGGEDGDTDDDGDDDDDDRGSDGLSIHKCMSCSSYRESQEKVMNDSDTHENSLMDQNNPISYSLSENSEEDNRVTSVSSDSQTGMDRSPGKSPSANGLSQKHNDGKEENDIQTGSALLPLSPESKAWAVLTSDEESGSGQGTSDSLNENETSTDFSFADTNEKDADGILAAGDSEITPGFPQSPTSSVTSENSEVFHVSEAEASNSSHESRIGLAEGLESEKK
T3 sequence (P07333 20-517): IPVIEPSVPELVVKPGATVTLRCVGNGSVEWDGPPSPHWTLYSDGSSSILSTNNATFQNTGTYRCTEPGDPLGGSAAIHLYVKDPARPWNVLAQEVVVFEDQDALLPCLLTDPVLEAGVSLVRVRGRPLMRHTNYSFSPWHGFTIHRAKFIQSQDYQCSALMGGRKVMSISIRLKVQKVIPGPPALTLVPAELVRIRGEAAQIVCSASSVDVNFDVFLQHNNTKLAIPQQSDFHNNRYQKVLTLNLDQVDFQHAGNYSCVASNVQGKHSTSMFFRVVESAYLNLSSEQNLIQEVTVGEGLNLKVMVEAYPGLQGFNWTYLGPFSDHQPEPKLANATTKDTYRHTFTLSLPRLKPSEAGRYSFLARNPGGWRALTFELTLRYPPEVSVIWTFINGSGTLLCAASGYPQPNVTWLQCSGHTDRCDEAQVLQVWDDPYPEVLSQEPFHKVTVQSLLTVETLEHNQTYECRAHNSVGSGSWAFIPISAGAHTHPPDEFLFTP

clonogenicity of U251 cells (colony count at 8 days) [1]: 53% | wound healing of U251 monolayer, time taken for 50% wound closure (t50) [1]: 10 h
Molecule: human pleiotrophin (hPTN) (from UniProt P21246 33-168) (ligand)

Molecule: B1
Kd [2]: ~100 nM | Kd (human tenascin-R (hTN-R)): ~1000 nM | Kd (human brevican): 3000 nM | Kd [3]: ~0.001 nM

Molecule: B2
binding result [4]: binds

Molecule: B3
Kd [5]: ~10 nM

Molecule: B4
binding result [6]: no binding

Molecule: B5
Kd [7]: ~0.01 nM
